Test results: publication PMC7948471, “RSU-1 interaction with prohibitin-2 links cell–extracellular matrix detachment to downregulation of ERK signaling” (The Journal of Biological Chemistry, 2020)

Target: T1, GST-tagged RSU1 (full length) (human, UniProt Q15404 1-277)
T1 construct: Ras suppressor 1 (RSU1), human; the ORF inserted into pGEX-5x-1; In solution in the MBP-PHB2 pull-down; as bait in the pull-down of venus-PHB2; also called GST-RSU1; source: E. coli, purified (glutathione-Sepharose 4B)
T1 sequence (looked up): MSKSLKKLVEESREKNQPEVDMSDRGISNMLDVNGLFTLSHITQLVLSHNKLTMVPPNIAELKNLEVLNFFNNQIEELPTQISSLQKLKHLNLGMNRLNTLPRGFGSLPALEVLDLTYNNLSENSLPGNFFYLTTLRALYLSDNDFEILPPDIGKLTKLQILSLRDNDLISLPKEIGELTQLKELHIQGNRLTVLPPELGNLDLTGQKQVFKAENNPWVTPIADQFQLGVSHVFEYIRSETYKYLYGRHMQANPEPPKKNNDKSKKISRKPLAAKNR
Test: pull-down; GST-RSU1 (10 μg/ml) with amylose beads holding MBP-tagged full-length or deletion forms of PHB2 or MBP; 1% Triton X-100, 10 mM Tris, 100 mM NaH2PO4, pH 8.0; 4 °C, 3 h; Western blot with anti-RSU1
Details: both partners purified

B1: MBP-tagged PHB2 middle region (amino acids 150–206) (domain or fragment, human, UniProt Q99623 150-206, looked up)
chain: ASQLITQRAQVSLLIRRELTERAKDFSLILDDVAITELSFSREYTAAVEAKQVAQQE
notes: source: E. coli, purified (amylose-agarose beads)
binding result: binds

B2: MBP-tagged PHB2 mutant in which amino acids 150 to 206 are deleted (Δ150–206) (natural protein, human, UniProt Q99623 1-299, looked up)
chain: MAQNLKDLAGRLPAGPRGMGTALKLLLGAGAVAYGVRESVFTVEGGHRAIFFNRIGGVQQDTILAEGLHFRIPWFQYPIIYDIRARPRKISSPTGSKDLQMVNISLRVLSRPNAQELPSMYQRLGLDYEERVLPSIVNEVLKSVVAKFNAQRAQFLVEKAKQEQRQKIVQAEGEAEAAKMLGEALSKNPGYIKLRKIRAAQNISKTIATSQNRIYLTADNLVLNLQDESFTRGSDSLIKGKK
notes: as for B1
binding result: binds
